According to the RNAGym collection of RNA variant scans (doi:10.1021/acssynbio.7b00057):

B1: Pistol ribozyme (parent)
chain: GGGUCGUUGUUCCAUAAUCGCGUGGAUAUGGCACGCAAGUUUCUACCGGGCACCGUAAAUGUCCGACUGGAGCCGUUCGGGCGGCUAUAAACAGACCUCAGGCCCGAAGCGUGGCGGCACCUGCCGCCGGUGGUAAAAAAGAUCGGAAGAGCACACGUCU

Variants of: B1
Assay: aptazyme ON/OFF ratio, guanine; higher = stronger switching; co-transcriptional cleavage with and without guanine

Row | Variant | aptazyme ON/OFF ratio
1 | GGGUCGAGGUAAUAUAAUCGCGUGGAUAUGGCACGCAAGUUUCUACCGGGCACCGUAAAUGUCCGACUGGAGCCGUUCGGGCGGCUAUAAACAGACCUCAGGCCCGAAGCGUGGCGGCACCUGCCGCCGGUGGUAAAAAAGAUCGGAAGAGCACACGUCU [U7A U8G U11A C12A C13U] | 1.07
2 | GGGUCGAGGUAAGAUAAUCGCGUGGAUAUGGCACGCAAGUUUCUACCGGGCACCGUAAAUGUCCGACUGGAGCCGUUCGGGCGGCUAUAAACAGACCUCAGGCCCGAAGCGUGGCGGCACCUGCCGCCGGUGGUAAAAAAGAUCGGAAGAGCACACGUCU [U7A U8G U11A C12A C13G] | 1.3
3 | GGGUCGAGGUAAAAUAAUCGCGUGGAUAUGGCACGCAAGUUUCUACCGGGCACCGUAAAUGUCCGACUGGAGCCGUUCGGGCGGCUAUAAACAGACCUCAGGCCCGAAGCGUGGCGGCACCUGCCGCCGGUGGUAAAAAAGAUCGGAAGAGCACACGUCU [U7A U8G U11A C12A C13A] | 1.41
4 | GGGUCGAGGGGUAAUAAUCGCGUGGAUAUGGCACGCAAGUUUCUACCGGGCACCGUAAAUGUCCGACUGGAGCCGUUCGGGCGGCUAUAAACAGACCUCAGGCCCGAAGCGUGGCGGCACCUGCCGCCGGUGGUAAAAAAGAUCGGAAGAGCACACGUCU [U7A U8G U10G U11G C12U C13A] | 1.31
5 | GGGUCGAGGGGUGAUAAUCGCGUGGAUAUGGCACGCAAGUUUCUACCGGGCACCGUAAAUGUCCGACUGGAGCCGUUCGGGCGGCUAUAAACAGACCUCAGGCCCGAAGCGUGGCGGCACCUGCCGCCGGUGGUAAAAAAGAUCGGAAGAGCACACGUCU [U7A U8G U10G U11G C12U C13G] | 1.33
6 | GGGUCGAGGGGUUAUAAUCGCGUGGAUAUGGCACGCAAGUUUCUACCGGGCACCGUAAAUGUCCGACUGGAGCCGUUCGGGCGGCUAUAAACAGACCUCAGGCCCGAAGCGUGGCGGCACCUGCCGCCGGUGGUAAAAAAGAUCGGAAGAGCACACGUCU [U7A U8G U10G U11G C12U C13U] | 1.38
7 | GGGUCGAGGUAGGAUAAUCGCGUGGAUAUGGCACGCAAGUUUCUACCGGGCACCGUAAAUGUCCGACUGGAGCCGUUCGGGCGGCUAUAAACAGACCUCAGGCCCGAAGCGUGGCGGCACCUGCCGCCGGUGGUAAAAAAGAUCGGAAGAGCACACGUCU [U7A U8G U11A C12G C13G] | 1.07
8 | GGGUCGAGGUAGUAUAAUCGCGUGGAUAUGGCACGCAAGUUUCUACCGGGCACCGUAAAUGUCCGACUGGAGCCGUUCGGGCGGCUAUAAACAGACCUCAGGCCCGAAGCGUGGCGGCACCUGCCGCCGGUGGUAAAAAAGAUCGGAAGAGCACACGUCU [U7A U8G U11A C12G C13U] | 1.24
9 | GGGUCGAGGUAGAAUAAUCGCGUGGAUAUGGCACGCAAGUUUCUACCGGGCACCGUAAAUGUCCGACUGGAGCCGUUCGGGCGGCUAUAAACAGACCUCAGGCCCGAAGCGUGGCGGCACCUGCCGCCGGUGGUAAAAAAGAUCGGAAGAGCACACGUCU [U7A U8G U11A C12G C13A] | 1.11
10 | GGGUCGAGGUCACAUAAUCGCGUGGAUAUGGCACGCAAGUUUCUACCGGGCACCGUAAAUGUCCGACUGGAGCCGUUCGGGCGGCUAUAAACAGACCUCAGGCCCGAAGCGUGGCGGCACCUGCCGCCGGUGGUAAAAAAGAUCGGAAGAGCACACGUCU [U7A U8G U11C C12A] | 1.24
11 | GGGUCGAGGGCCUAUAAUCGCGUGGAUAUGGCACGCAAGUUUCUACCGGGCACCGUAAAUGUCCGACUGGAGCCGUUCGGGCGGCUAUAAACAGACCUCAGGCCCGAAGCGUGGCGGCACCUGCCGCCGGUGGUAAAAAAGAUCGGAAGAGCACACGUCU [U7A U8G U10G U11C C13U] | 1.3
12 | GGGUCGAGGGCCGAUAAUCGCGUGGAUAUGGCACGCAAGUUUCUACCGGGCACCGUAAAUGUCCGACUGGAGCCGUUCGGGCGGCUAUAAACAGACCUCAGGCCCGAAGCGUGGCGGCACCUGCCGCCGGUGGUAAAAAAGAUCGGAAGAGCACACGUCU [U7A U8G U10G U11C C13G] | 1.29
13 | GGGUCGAGGUAGCAUAAUCGCGUGGAUAUGGCACGCAAGUUUCUACCGGGCACCGUAAAUGUCCGACUGGAGCCGUUCGGGCGGCUAUAAACAGACCUCAGGCCCGAAGCGUGGCGGCACCUGCCGCCGGUGGUAAAAAAGAUCGGAAGAGCACACGUCU [U7A U8G U11A C12G] | 1.2
14 | GGGUCGAGGUAACAUAAUCGCGUGGAUAUGGCACGCAAGUUUCUACCGGGCACCGUAAAUGUCCGACUGGAGCCGUUCGGGCGGCUAUAAACAGACCUCAGGCCCGAAGCGUGGCGGCACCUGCCGCCGGUGGUAAAAAAGAUCGGAAGAGCACACGUCU [U7A U8G U11A C12A] | 1.43
15 | GGGUCGAGGUAUCAUAAUCGCGUGGAUAUGGCACGCAAGUUUCUACCGGGCACCGUAAAUGUCCGACUGGAGCCGUUCGGGCGGCUAUAAACAGACCUCAGGCCCGAAGCGUGGCGGCACCUGCCGCCGGUGGUAAAAAAGAUCGGAAGAGCACACGUCU [U7A U8G U11A C12U] | 1.23
16 | GGGUCGAGGUAUUAUAAUCGCGUGGAUAUGGCACGCAAGUUUCUACCGGGCACCGUAAAUGUCCGACUGGAGCCGUUCGGGCGGCUAUAAACAGACCUCAGGCCCGAAGCGUGGCGGCACCUGCCGCCGGUGGUAAAAAAGAUCGGAAGAGCACACGUCU [U7A U8G U11A C12U C13U] | 1.18
17 | GGGUCGAGGUAUAAUAAUCGCGUGGAUAUGGCACGCAAGUUUCUACCGGGCACCGUAAAUGUCCGACUGGAGCCGUUCGGGCGGCUAUAAACAGACCUCAGGCCCGAAGCGUGGCGGCACCUGCCGCCGGUGGUAAAAAAGAUCGGAAGAGCACACGUCU [U7A U8G U11A C12U C13A] | 1.5
18 | GGGUCGAGGUAUGAUAAUCGCGUGGAUAUGGCACGCAAGUUUCUACCGGGCACCGUAAAUGUCCGACUGGAGCCGUUCGGGCGGCUAUAAACAGACCUCAGGCCCGAAGCGUGGCGGCACCUGCCGCCGGUGGUAAAAAAGAUCGGAAGAGCACACGUCU [U7A U8G U11A C12U C13G] | 1.35

Row | Variant | aptazyme ON/OFF ratio
19 | GGGUCGAGGGGCCAUAAUCGCGUGGAUAUGGCACGCAAGUUUCUACCGGGCACCGUAAAUGUCCGACUGGAGCCGUUCGGGCGGCUAUAAACAGACCUCAGGCCCGAAGCGUGGCGGCACCUGCCGCCGGUGGUAAAAAAGAUCGGAAGAGCACACGUCU [U7A U8G U10G U11G] | 1.44
20 | GGGUCGAGGGGUCAUAAUCGCGUGGAUAUGGCACGCAAGUUUCUACCGGGCACCGUAAAUGUCCGACUGGAGCCGUUCGGGCGGCUAUAAACAGACCUCAGGCCCGAAGCGUGGCGGCACCUGCCGCCGGUGGUAAAAAAGAUCGGAAGAGCACACGUCU [U7A U8G U10G U11G C12U] | 1.42
21 | GGGUCGAGGGGACAUAAUCGCGUGGAUAUGGCACGCAAGUUUCUACCGGGCACCGUAAAUGUCCGACUGGAGCCGUUCGGGCGGCUAUAAACAGACCUCAGGCCCGAAGCGUGGCGGCACCUGCCGCCGGUGGUAAAAAAGAUCGGAAGAGCACACGUCU [U7A U8G U10G U11G C12A] | 1.24
22 | GGGUCGAGGGGGCAUAAUCGCGUGGAUAUGGCACGCAAGUUUCUACCGGGCACCGUAAAUGUCCGACUGGAGCCGUUCGGGCGGCUAUAAACAGACCUCAGGCCCGAAGCGUGGCGGCACCUGCCGCCGGUGGUAAAAAAGAUCGGAAGAGCACACGUCU [U7A U8G U10G U11G C12G] | 1.31
23 | GGGUCGAGGUACGAUAAUCGCGUGGAUAUGGCACGCAAGUUUCUACCGGGCACCGUAAAUGUCCGACUGGAGCCGUUCGGGCGGCUAUAAACAGACCUCAGGCCCGAAGCGUGGCGGCACCUGCCGCCGGUGGUAAAAAAGAUCGGAAGAGCACACGUCU [U7A U8G U11A C13G] | 1.4
24 | GGGUCGAGGUACUAUAAUCGCGUGGAUAUGGCACGCAAGUUUCUACCGGGCACCGUAAAUGUCCGACUGGAGCCGUUCGGGCGGCUAUAAACAGACCUCAGGCCCGAAGCGUGGCGGCACCUGCCGCCGGUGGUAAAAAAGAUCGGAAGAGCACACGUCU [U7A U8G U11A C13U] | 1.11
25 | GGGUCGAGGUACAAUAAUCGCGUGGAUAUGGCACGCAAGUUUCUACCGGGCACCGUAAAUGUCCGACUGGAGCCGUUCGGGCGGCUAUAAACAGACCUCAGGCCCGAAGCGUGGCGGCACCUGCCGCCGGUGGUAAAAAAGAUCGGAAGAGCACACGUCU [U7A U8G U11A C13A] | 1.31
26 | GGGUCGAGGUACCAUAAUCGCGUGGAUAUGGCACGCAAGUUUCUACCGGGCACCGUAAAUGUCCGACUGGAGCCGUUCGGGCGGCUAUAAACAGACCUCAGGCCCGAAGCGUGGCGGCACCUGCCGCCGGUGGUAAAAAAGAUCGGAAGAGCACACGUCU [U7A U8G U11A] | 1.49
27 | GGGUCGAGGUCCCAUAAUCGCGUGGAUAUGGCACGCAAGUUUCUACCGGGCACCGUAAAUGUCCGACUGGAGCCGUUCGGGCGGCUAUAAACAGACCUCAGGCCCGAAGCGUGGCGGCACCUGCCGCCGGUGGUAAAAAAGAUCGGAAGAGCACACGUCU [U7A U8G U11C] | 1.32
28 | GGGUCGAGGGGGGAUAAUCGCGUGGAUAUGGCACGCAAGUUUCUACCGGGCACCGUAAAUGUCCGACUGGAGCCGUUCGGGCGGCUAUAAACAGACCUCAGGCCCGAAGCGUGGCGGCACCUGCCGCCGGUGGUAAAAAAGAUCGGAAGAGCACACGUCU [U7A U8G U10G U11G C12G C13G] | 1.03
29 | GGGUCGAGGGGGAAUAAUCGCGUGGAUAUGGCACGCAAGUUUCUACCGGGCACCGUAAAUGUCCGACUGGAGCCGUUCGGGCGGCUAUAAACAGACCUCAGGCCCGAAGCGUGGCGGCACCUGCCGCCGGUGGUAAAAAAGAUCGGAAGAGCACACGUCU [U7A U8G U10G U11G C12G C13A] | 1.45
30 | GGGUCGAGGGGGUAUAAUCGCGUGGAUAUGGCACGCAAGUUUCUACCGGGCACCGUAAAUGUCCGACUGGAGCCGUUCGGGCGGCUAUAAACAGACCUCAGGCCCGAAGCGUGGCGGCACCUGCCGCCGGUGGUAAAAAAGAUCGGAAGAGCACACGUCU [U7A U8G U10G U11G C12G C13U] | 1.18
31 | GGGUCGAGGGGCAAUAAUCGCGUGGAUAUGGCACGCAAGUUUCUACCGGGCACCGUAAAUGUCCGACUGGAGCCGUUCGGGCGGCUAUAAACAGACCUCAGGCCCGAAGCGUGGCGGCACCUGCCGCCGGUGGUAAAAAAGAUCGGAAGAGCACACGUCU [U7A U8G U10G U11G C13A] | 1.39
32 | GGGUCGAGGGGCUAUAAUCGCGUGGAUAUGGCACGCAAGUUUCUACCGGGCACCGUAAAUGUCCGACUGGAGCCGUUCGGGCGGCUAUAAACAGACCUCAGGCCCGAAGCGUGGCGGCACCUGCCGCCGGUGGUAAAAAAGAUCGGAAGAGCACACGUCU [U7A U8G U10G U11G C13U] | 1.32
33 | GGGUCGAGGGGCGAUAAUCGCGUGGAUAUGGCACGCAAGUUUCUACCGGGCACCGUAAAUGUCCGACUGGAGCCGUUCGGGCGGCUAUAAACAGACCUCAGGCCCGAAGCGUGGCGGCACCUGCCGCCGGUGGUAAAAAAGAUCGGAAGAGCACACGUCU [U7A U8G U10G U11G C13G] | 1.29
34 | GGGUCGAGGGGAAAUAAUCGCGUGGAUAUGGCACGCAAGUUUCUACCGGGCACCGUAAAUGUCCGACUGGAGCCGUUCGGGCGGCUAUAAACAGACCUCAGGCCCGAAGCGUGGCGGCACCUGCCGCCGGUGGUAAAAAAGAUCGGAAGAGCACACGUCU [U7A U8G U10G U11G C12A C13A] | 1.22
35 | GGGUCGAGGGGAUAUAAUCGCGUGGAUAUGGCACGCAAGUUUCUACCGGGCACCGUAAAUGUCCGACUGGAGCCGUUCGGGCGGCUAUAAACAGACCUCAGGCCCGAAGCGUGGCGGCACCUGCCGCCGGUGGUAAAAAAGAUCGGAAGAGCACACGUCU [U7A U8G U10G U11G C12A C13U] | 1.41
36 | GGGUCGAGGGGAGAUAAUCGCGUGGAUAUGGCACGCAAGUUUCUACCGGGCACCGUAAAUGUCCGACUGGAGCCGUUCGGGCGGCUAUAAACAGACCUCAGGCCCGAAGCGUGGCGGCACCUGCCGCCGGUGGUAAAAAAGAUCGGAAGAGCACACGUCU [U7A U8G U10G U11G C12A C13G] | 1.47
